# Assay results: patent US20230235074A1 (University of Texas, published 2023)
# T1: Recombinant human BST2 protein (Catalog number 13370-H07H, Sino Biological) (human, UniProt Q10589 49-161)
# T1 construct: Bought soluble protein; also called full length recombinant BST2 protein; full-length BST2 protein
# T1 sequence (looked up): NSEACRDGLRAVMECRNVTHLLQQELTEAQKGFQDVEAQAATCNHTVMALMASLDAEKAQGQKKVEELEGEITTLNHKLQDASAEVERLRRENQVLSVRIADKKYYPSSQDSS
# T2: Spartan protein (SprT-like domain-containing protein) (human, UniProt Q9H040 1-489, limits assumed)
# T2 construct: Irrelevant protein control in the preincubation assay; also called Spartan irrelevant protein; irrelevant protein
# T2 sequence (looked up): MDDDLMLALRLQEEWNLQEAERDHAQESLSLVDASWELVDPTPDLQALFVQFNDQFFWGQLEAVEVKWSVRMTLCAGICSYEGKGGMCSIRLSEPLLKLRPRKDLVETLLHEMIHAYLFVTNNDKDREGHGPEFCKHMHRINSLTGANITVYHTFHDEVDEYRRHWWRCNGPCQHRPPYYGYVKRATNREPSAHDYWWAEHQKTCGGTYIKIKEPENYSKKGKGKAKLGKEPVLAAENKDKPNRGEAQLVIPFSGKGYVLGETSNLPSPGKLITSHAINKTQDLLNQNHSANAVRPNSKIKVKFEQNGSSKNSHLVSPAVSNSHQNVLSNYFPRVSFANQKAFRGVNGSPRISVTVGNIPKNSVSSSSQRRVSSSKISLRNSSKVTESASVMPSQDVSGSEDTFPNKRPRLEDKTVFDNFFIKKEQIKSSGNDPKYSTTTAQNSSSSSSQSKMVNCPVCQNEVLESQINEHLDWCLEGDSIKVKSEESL
# B1: anti-BST2-long monoclonal antibody clone LA5 (antibody, mouse IgG1, V domains shown)
# VH: EVQLQQSGAELVRSGASVNLSCTASGFNIKDYYIHWVKQRPERGLEWIGWIDPENGDTEYAPEFQGKASMTADTSSNTAYLQLSSLTSEDTAVYYCKRGDWGQGTLVTVSA
# VL: DVLMTQTPLSLPVSLGDQASISCRSSQSIVHSNGNTYLEWFLQKPGQSPKLLIYKVSNRFSGVPDRFSGSGSGTDFTLKISRVEAEDLGVYYCFQGSHAPFTFGSGTELEIK
# notes: Mouse hybridoma antibody; Used as hybridoma supernatant in the screening assays and as Protein A purified mAb afterwards; also called LA5 mAb; MAb LA5
# Experiments:
# [1] = molecular target: BST2 as expressed endogenously on the surface of human cell lines (B-LCL, MM1, U266, MCF-10A, MCF7, MDA-MB-231, T47D) (human) (UniProt Q10589); assay: flow cytometry on MM1 cells, mAb not preincubated
# [2] = molecular target: BST2 as expressed endogenously on the surface of human cell lines (B-LCL, MM1, U266, MCF-10A, MCF7, MDA-MB-231, T47D) (human) (UniProt Q10589); assay: flow cytometry on MCF7 cells, mAb 1 ug/ml
# [3] = molecular target: BST2 as expressed endogenously on the surface of human cell lines (B-LCL, MM1, U266, MCF-10A, MCF7, MDA-MB-231, T47D) (human) (UniProt Q10589); assay: flow cytometry on MM1 cells, mAb preincubated 10 min with Spartan protein (5 ug/ml)
# [4] = molecular target: T1, Recombinant human BST2 protein (Catalog …); assay: BLI (Octet RED384), mAb 5 ug/ml captured on anti-mouse IgG Fc (AMC) biosensors, BST2 protein 15.625-1000 nM, 1:1 model, global fit
# Method: Binding kinetics of the anti-BST2-long mAb clone LA5 was assessed, using Octet RED384 platform system. Briefly, antibodies were captured, as described under methods, by specific biosensors that bind the Fc region of the antibody. Based on prior experiments and certain standard operations procedures, 5 ug/ml was selected as the fixed concentration for the mAb. Various concentrations of the full length recombinant BST2 protein were used to assess the antibody affinity. The interaction was analyzed with a 1:1 binding model, involving both the association and the dissociation steps.
# [5] = molecular target: BST2 as expressed endogenously on the surface of human cell lines (B-LCL, MM1, U266, MCF-10A, MCF7, MDA-MB-231, T47D) (human) (UniProt Q10589); assay: flow cytometry on U266 cells, mAb 1 ug/ml
# [6] = molecular target: BST2 as expressed endogenously on the surface of human cell lines (B-LCL, MM1, U266, MCF-10A, MCF7, MDA-MB-231, T47D) (human) (UniProt Q10589); assay: flow cytometry on MM1 cells, mAb preincubated 10 min with recombinant BST2 protein (5 ug/ml) as competitor
# [7] = molecular target: BST2 as expressed endogenously on the surface of human cell lines (B-LCL, MM1, U266, MCF-10A, MCF7, MDA-MB-231, T47D) (human) (UniProt Q10589); assay: flow cytometry on MDA-MB-231 cells, mAb 1 ug/ml
# [8] = molecular target: T3, BST2 long isoform (BST2-D, full length BST2, 180 amino acids) expressed on HEK293 transfectants (human, UniProt Q10589 1-161); assay: flow cytometry, hybridoma supernatant on HEK293-long cells
# T3 construct: also called HEK293-long; HEK293 WT-BST2
# Method: For flow cytometry assays, cells were detached using 0.05% trypsin-EDTA, counted, washed and resuspend with FACS Buffer (PBS, 2% FBS, 2 mM EDTA). 2×10⁵ cells in 100 ul/well were placed in U-bottom 96-well plate and centrifuged (1000 RPM/3 min/4° C.). The buffer was discarded and 100 ul of the previously collected supernatants with selected monoclonal antibodies were added to the wells and incubated on ice for 30 minutes. After incubation, the plate was washed three times with FACS buffer and 50 ul of diluted (1/250) secondary antibody (Donkey anti-mouse Allophycocyanin (APC) conjugated) were added to the wells and incubated on ice for 20 minutes protected from light. The final wash was repeated 4 times, and the samples were transferred and analyzed at the South Campus Flow Cytometry & Cell Sorting Core Laboratory at MD Anderson Cancer Center. FACS data were analyzed with FlowJo™ Software—for Windows (Version 10.6.1. Ashland, Oreg.: Becton, Dickinson and Company; 2020).
# [9] = molecular target: BST2 as expressed endogenously on the surface of human cell lines (B-LCL, MM1, U266, MCF-10A, MCF7, MDA-MB-231, T47D) (human) (UniProt Q10589); assay: flow cytometry on MM1 cells, mAb 1 ug/ml
# [10] = molecular target: T2, Spartan protein (SprT-like …); assay: flow cytometry of MM1 cells after preincubation of the mAb with Spartan protein
# Method: A specificity assay was performed and analyzed through flow cytometry staining of MM1, a multiple myeloma cell line. In this assay, changes in the binding of the LA5 mAb to the BST2 receptor expressed on MM1 cell lines were assessed after:
# As part of the characterization of the selected antibody candidate, the inventors analyzed the specificity of the new antibody by flow cytometry staining of a cell line, constitutively expressing BST2, competing the antibody binding to the cells with a recombinant BST2 protein and an irrelevant target. Staining of MM1, a multiple myeloma cell line, was assessed at different conditions to test the binding specificity of the generated monoclonal antibodies. Anti-BST2-long (clone LA5) was pre-incubated with BST2 protein for 10 minutes, before being transferred to U-bottom wells plate containing MM1 cells. […] Alternatively, Spartan protein, or SprT-like domain-containing protein, a human DNA-binding metalloprotease with 489 amino acid length and involved in the response to DNA replication errors (34, 35) was used as an irrelevant protein.
# [11] = molecular target: BST2 as expressed endogenously on the surface of human cell lines (B-LCL, MM1, U266, MCF-10A, MCF7, MDA-MB-231, T47D) (human) (UniProt Q10589); assay: flow cytometry on MCF-10A cells, mAb 1 ug/ml
# [12] = molecular target: BST2 as expressed endogenously on the surface of human cell lines (B-LCL, MM1, U266, MCF-10A, MCF7, MDA-MB-231, T47D) (human) (UniProt Q10589); assay: flow cytometry on T47D cells, mAb 1 ug/ml
# [13] = molecular target: BST2 as expressed endogenously on the surface of human cell lines (B-LCL, MM1, U266, MCF-10A, MCF7, MDA-MB-231, T47D) (human) (UniProt Q10589); assay: flow cytometry on B-LCL cells, mAb 1 ug/ml
binder,measurement,setting,value
B1,staining percentage of the MM1 cells,[1],85.2%
same,percentage of cell staining,[2],0.43%
same,staining percentage of the MM1 cells,[3],83.9%
same,Kd,[4],4.61 nM
same,koff,[4],0.000921 s⁻¹
same,kon,[4],200000 M⁻¹ s⁻¹
same,percentage of cell staining,[5],96.1%
same,staining percentage of the MM1 cells,[6],5.01%
same,percentage of cell staining,[7],1%
same,percentage of cells stained,[8],58.3%
same,percentage of cell staining,[9],98.6%
same,binding result,[10],no binding (tested: 5 ug/ml)
same,percentage of cell staining,[11],2.4%
same,percentage of cell staining,[12],2.6%
same,percentage of cell staining,[13],99.3%
